Assay results taken from patent US20240043527A1 (BioNTech SE, priority 2020, published 2024).

How the values were obtained:
[1] = test system: primary human hepatocytes; test: Expression and assembly of RiboMab after lipofection of primary human hepatocytes (ELISA, Western Blot); format: cell-based; settings: 48 hours post lipofection
Procedure: (Left) ELISA analyses of RiboMab01 concentrations 48 hours post transfection. (Right) Western Blot analysis of cell culture supernatant from indicated lipofections. Recombinant purified IMAB362 served as reference for Western Blot analysis. Analysis was performed under non-reducing conditions and with HRP-conjugated anti-human antibodies. A mixture of Fcγ-fragment specific and anti-kappa light chain specific antibodies was used for detection of full length IgG, free heavy (HC) and free light chains (LC). Supernatant of untransfected primary human hepatocytes served as mock control. […] RiboMab01 concentration determined via ELISA 48 hours post transfection are shown. Error bars are standard errors of the mean (n=3).
Assembly of full IgG after RNA transfection of hepatocytes.

CLDN-18.2 = biological target: T1, CLDN-18.2 (Homo sapiens, UniProt P56856); test: Flow cytometric binding assay on CLDN-18.2+ HEK293 transfectants; settings: CHO-K1 supernatant on CLDN-18.2+ HEK293 transfectants
T1 construct: expressed in transfected cells; host or cells: HEK293

[2] = test system: CLDN-18.2+ NCI-N87 xenograft tumors; test: CLDN-18.2+ human gastric carcinoma xenograft tumor model; format: in vivo, mice; settings: IV injections of 1-30 μg RB_RMAB01 on test days 15, 22, 29, 36, 43 and 50
Procedure: Median tumor growth of treatment and control groups is shown. Dotted lines indicate injections. Significance was calculated by Two-way ANOVA. Ns indicates not significant.

[3] = Repetitive dose PK study in NHP (ELISA); format: in vivo, Cynomolgus monkey
Procedure: NHP received IV injections of 0.1, 0.4 or 1.6 mg/kg RB_RMAB01 at test days 1, 8 and […] was sampled 6, 24, 48, 72, 96 and 168 hours post 1st and 3rd dosing and 48, 72 and 168 hours post 2nd dosing as well as 264, 336 and 504 hours post 3rd dosing. RiboMab01 concentrations in plasma measured via ELISA are shown. Error bars are standard errors of the mean (n=3).
FIG. 14 is a graph showing dose-exposure correlation of RB_RMAB01 in cynomolgus monkey at tmax. Cynomolgus monkeys (n=3) received IV injections of 0.1, 0.4 or 1.6 mg/kg RB_RMAB01. Dose-dependent RiboMab01 concentrations (mean, n=3) in plasma measured via ELISA at Cmax are depicted. A green line indicates a dose that can be administered to a human subject and its corresponding anticipated serum concentration.
Treatment groups received three IV bolus injections of either 0.1 mg/kg, 0.4 mg/kg or 1.6 mg/kg at weekly intervals. As controls, saline or empty LNPs were administered likewise. Serum was sampled 6, 24, 48, 72, 96 and 168 hours post 1st and 3rd dosing and 48, 72 and 168 hours post 2nd dosing as well as 264, 336 and 504 hours post 3rd dosing.

binding to CLDN-18.2 polypeptide (CLDN-18.2): bound preferentially | binding to CLDN-18.2 polypeptide (CLDN-18.2; listed as RiboMab01): binds target specific to CLDN-18.2
Substance: CLDN-18.2-targeting RiboMab: CLDN-18.2-targeting IgG antibody (IMAB362 delivered as ribonucleic acid) expressed from mRNAs encoding heavy and light chain
expression and assembly of full IgG in cell supernatant [1]: Fully assembled | expression and assembly of full IgG in cell supernatant ([1]; listed as RiboMab01): expressed | tumor growth inhibition in vivo (FIG. 6) [2]: tumor growth inhibition | RiboMab serum concentration, highest determined ([3]; NHP No. 14, 1.6 mg/kg, 48 hours after the 3rd dosing): 232 µg/mL | Cmax compared with IMAB362 ([3]; between 48-72 hours post administration): notably lower Cmax than IMAB362 | tmax ([3]; dose-exposure correlation in cynomolgus monkey, FIG. 14): 48 h | peak serum concentration of RiboMab ([3]; highest dose 1.6 mg/kg, 48-72 hours post 3rd administration): 231.7 µg/mL | time RiboMab detectable (termination of the study) ([3]; post 1st dosing): 840 h | expression on weekly administration ([3]; three weekly IV doses): sustainable
